Among the data in paper PMC3219604 are binding signal (binding score (0-5)) values, retold here.

The subject of this data set is OrfAB-GFP GMF101 V179L ((insertion sequence IS2)). Description: EMSA. The following applies: panel (50- or 87-mer) not stated in material; 20 mM Tris-Cl pH 8.0, 1 mM EDTA, 5 ug/mL calf thymus DNA, 10 nM DNA, 0.11-0.13 uM protein, 30 min at 20 C; gels at 4 C. A general note: Mobility shift assays separate free from complexed probe on a gel.

On to “GGATCCTTAAGTGATAACAGATGTCTGGAAATATAGGGGCAAATCCAGCG (double strand) [IRR 50-mer]”, for which the binding signal (binding score (0-5)) worked out at 3.
